Laboratory results published in patent publication US20210214410A1 (Stanford University, published 2021).

T1: human interleukin 13 receptor alpha 2 (IL-13Rα2), biotinylated (human, UniProt Q14627 27-343, limits assumed, biotinylated (site not stated))
T1 construct: The methods give construct limits only for IL-13Rα1 and IL-4Rα1; For IL-13Rα2 they say only that the biotinylated receptor was captured on the SA chip; also called IL13RA2; CD213a2
T1 sequence (looked up): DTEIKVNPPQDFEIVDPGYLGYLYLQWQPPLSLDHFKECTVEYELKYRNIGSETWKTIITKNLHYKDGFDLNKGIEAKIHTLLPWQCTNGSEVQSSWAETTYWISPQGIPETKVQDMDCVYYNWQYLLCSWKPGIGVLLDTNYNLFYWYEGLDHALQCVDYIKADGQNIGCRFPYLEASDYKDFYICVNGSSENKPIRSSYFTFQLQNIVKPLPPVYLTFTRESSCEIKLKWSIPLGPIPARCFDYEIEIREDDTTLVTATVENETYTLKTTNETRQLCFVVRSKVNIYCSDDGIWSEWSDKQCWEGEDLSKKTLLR


How the values were obtained:
[1] = molecular target: human interleukin 13 receptor alpha 1 (IL-13Rα1), biotinylated ectodomain (human) (UniProt P78552); assay: SPR, kinetic fit
[2] = molecular target: human interleukin 13 receptor alpha 1 (IL-13Rα1), biotinylated ectodomain (human) (UniProt P78552); assay: SPR (Biacore T100), biotinylated receptor on SA chip, 1:1 kinetic fit
[3] = molecular target: human interleukin 13 receptor alpha 2 (IL-13Rα2), biotinylated (human) (UniProt Q14627); assay: flow cytometry, PE-labelled mouse IgG1, live U87 cells
[4] = molecular target: human interleukin 13 receptor alpha 2 (IL-13Rα2), biotinylated (human) (UniProt Q14627); assay: flow cytometry, PE-labelled mouse IgG1, live SKOV3 cells
[5] = molecular target: T1, human interleukin 13 receptor alpha 2 …; assay: SPR (Biacore T100), biotinylated receptor on SA chip, equilibrium KD
Experimental: (§1) Surface Plasmon Resonance. SPR experiments were conducted on a Biacore T100 instrument. Experiments used a Biacore SA sensor chip (GE Healthcare). Biotinylated IL-13Rα1 and IL-13Rα2 receptors were captured at a low density (100-200 RU) and kinetic runs were conducted at 40 μL/min. An unrelated biotinylated protein was immobilized as a reference surface for the SA sensor chip with matching RU to the experimental surface. All data was analyzed using the Biacore T100 evaluation software version 2.0 with a 1:1 Langmuir binding model. Serial dilutions of unbiotinylated IL-13 variants in the running buffer [1×HBS-P (GE Healthcare)+0.5% BSA] were flowed over the chip and IL-13Rα1/IL-13Rα2 were regenerated by using one 60 second injections of 7 mM glycine (pH 3.0).

[6] = molecular target: T1, human interleukin 13 receptor alpha 2 …; assay: SPR (Biacore T100), biotinylated receptor on SA chip, 1:1 kinetic fit
Experimental: as §1

[7] = molecular target: human interleukin 13 receptor alpha 1 (IL-13Rα1), biotinylated ectodomain (human) (UniProt P78552); assay: SPR (Biacore T100), biotinylated receptor on SA chip, equilibrium KD
[8] = molecular target: T1, human interleukin 13 receptor alpha 2 …; assay: SPR, kinetic fit
Experimental: as §1

Row | Molecule | Kd [2] [nM] | koff [2] [s⁻¹] | kon [2] [M⁻¹ s⁻¹] | Kd [6] [nM] | koff [6] [s⁻¹] | kon [6] [M⁻¹ s⁻¹] | Kd [7] [nM] | further results
1 | Isotype Control (antibody) | – | – | – | – | – | – | – | % of cells in the PE gate [3]: 0.035%; % of cells in the PE gate [4]: 0.042%
2 | A7 (ligand, also called IL-13 variant A7 (L10I, V18I, D87G, T88S, L101H, K104R, K105A)) cytokine: PGPVPPSTAIRELIEELINITQNQKAPLCNGSMVWSINLTAGMYCAALESLINVSGCSAIEKTQRMLSGFCPHKVSAGQFSSLHVRGSKIEVAQFVKDLLHHLRALFREGQFN | 1.18 | 0.0034 | 2.9e+06 | 0.218 | 0.0041 | 1.8e+07 | – | –
3 | C7 (ligand, also called IL-13 variant C7 (R11S, I14M, T88S, L101N, K105A, R108K)) cytokine: PGPVPPSTALSELMEELVNITQNQKAPLCNGSMVWSINLTAGMYCAALESLINVSGCSAIEKTQRMLSGFCPHKVSAGQFSSLHVRDSKIEVAQFVKDLLNHLKALFKEGQFN | – | – | – | 0.272 | 0.00057 | 2.1e+06 | 35000 | –
4 | C2 (ligand, also called IL-13 variant C2 (L10D, R11I, V18I, R86K, D87K, K89R, R108K)) cytokine: PGPVPPSTADIELIEELINITQNQKAPLCNGSMVWSINLTAGMYCAALESLINVSGCSAIEKTQRMLSGFCPHKVSAGQFSSLHVKKTRIEVAQFVKDLLLHLKKLFKEGQFN | – | – | – | 0.025 | 0.00015 | 6.6e+06 | 4000 | –
5 | A5 (ligand, also called IL-13 variant A5 (R11I, V18I, R86K, D87G, T88S, L101H, K104R, K105A, F107M)) cytokine: PGPVPPSTALIELIEELINITQNQKAPLCNGSMVWSINLTAGMYCAALESLINVSGCSAIEKTQRMLSGFCPHKVSAGQFSSLHVKGSKIEVAQFVKDLLHHLRALMREGQFN | 2.94 | 0.0082 | 2.8e+06 | – | – | – | – | Kd [5]: 50 nM
6 | C9 (ligand, also called IL-13 variant C9 (L10H, R11L, V18I, R86K, D87E, K89R, L101N, K105T, R108K)) cytokine: PGPVPPSTAHLELIEELINITQNQKAPLCNGSMVWSINLTAGMYCAALESLINVSGCSAIEKTQRMLSGFCPHKVSAGQFSSLHVKETRIEVAQFVKDLLNHLKTLFKEGQFN | – | – | – | 0.259 | 0.000529 | 2.03e+06 | 31000 | –
7 | C3 (ligand, also called IL-13 variant C3 (L10A, R86T, D87G, T88K, K89R, L101N, K104R, K105A, R108K)) cytokine: PGPVPPSTAARELIEELVNITQNQKAPLCNGSMVWSINLTAGMYCAALESLINVSGCSAIEKTQRMLSGFCPHKVSAGQFSSLHVTGKRIEVAQFVKDLLNHLRALFKEGQFN | – | – | – | 0.379 | 0.002 | 6e+06 | 16000 | –
8 | B6 (ligand, the sheet prints K at position 89 (same as wild type); also called IL-13 variant B6 (L10T, V18I, D87G, T88S, L101Y, K104R, K105T)) cytokine: PGPVPPSTATRELIEELINITQNQKAPLCNGSMVWSINLTAGMYCAALESLINVSGCSAIEKTQRMLSGFCPHKVSAGQFSSLHVRGSKIEVAQFVKDLLYHLRTLFREGQFN | 5.9 | 0.0082 | 1.4e+06 | – | – | – | – | Kd [5]: 53 nM
9 | A8 (ligand, also called IL-13 variant A8 (L10I, V18I, D87S, T88S, K89R, L101H, K104R, K105T)) cytokine: PGPVPPSTAIRELIEELINITQNQKAPLCNGSMVWSINLTAGMYCAALESLINVSGCSAIEKTQRMLSGFCPHKVSAGQFSSLHVRSSRIEVAQFVKDLLHHLRTLFREGQFN | 2.06 | 0.0033 | 1.64e+06 | 0.263 | 0.0026 | 1.01e+07 | – | –
10 | A6 (ligand, also called IL-13 variant A6 (L10I, V18L, R86M, D87K, T88S, L101H, K104R, K105A)) cytokine: PGPVPPSTAIRELIEELLNITQNQKAPLCNGSMVWSINLTAGMYCAALESLINVSGCSAIEKTQRMLSGFCPHKVSAGQFSSLHVMKSKIEVAQFVKDLLHHLRALFREGQFN | 1.9 | 0.0033 | 1.77e+06 | 0.267 | 0.0028 | 1.07e+07 | – | –
11 | IL-13dn (ligand, also called IL13dn (L10V, E12A, V18I, R65D, D87S, T88S, L101F, K104R, K105T)) cytokine: PGPVPPSTAVRALIEELINITQNQKAPLCNGSMVWSINLTAGMYCAALESLINVSGCSAIEKTQDMLSGFCPHKVSAGQFSSLHVRSSKIEVAQFVKDLLFHLRTLFREGQFN | – | – | – | – | – | – | – | Kd [1]: 0.084 nM; koff [1]: 0.0013 s⁻¹; kon [1]: 1.64e+07 M⁻¹ s⁻¹; Kd [8]: 0.391 nM; koff [8]: 0.006 s⁻¹; kon [8]: 1.62e+07 M⁻¹ s⁻¹
12 | B2 (ligand, also called IL-13 variant B2 (V18I, R86T, D87G, T88S, L101Y, K104R, K105A)) cytokine: PGPVPPSTALRELIEELINITQNQKAPLCNGSMVWSINLTAGMYCAALESLINVSGCSAIEKTQRMLSGFCPHKVSAGQFSSLHVTGSKIEVAQFVKDLLYHLRALFREGQFN | 0.275 | 0.0017 | 6.3e+06 | 1.5 | 0.01 | 7.8e+06 | – | –

The next lines start with results.

Row | Kd [2] [nM] | koff [2] [s⁻¹] | kon [2] [M⁻¹ s⁻¹] | Kd [6] [nM] | koff [6] [s⁻¹] | kon [6] [M⁻¹ s⁻¹] | Kd [7] [nM] | Molecule | further results
13 | 4.38 | 0.022 | 5.21e+06 | – | – | – | – | wild-type human IL-13 (from UniProt P35225 34-146) (ligand) | Kd [1]: 4.38 nM; koff [1]: 0.022 s⁻¹; kon [1]: 5.21e+06 M⁻¹ s⁻¹
14 | 18 | 0.024 | 1.36e+06 | – | – | – | – | IL-13 variant B4 (R11S, V18I, R86K, D87G, T88S, K89M, L101Y, K104R, K105T) (ligand, also called polypeptide B4) PGPVPPSTALSELIEELINITQNQKAPLCNGSMVWSINPTAGMYCAALESLINVSGCSAIEKTQRMLSGFCPHKVAAGQFSSLHDKGSMIEVAQFVKDLLYHLRTLFREGQFNHHHHHH | Kd [5]: 108 nM
15 | 0.084 | 0.0013 | 1.64e+07 | 0.391 | 0.006 | 1.62e+07 | – | A11 (ligand, also called IL-13 variant A11 (L10V, V18I, D87S, T88S, L101F, K104R, K105T)) cytokine: PGPVPPSTAVRELIEELINITQNQKAPLCNGSMVWSINLTAGMYCAALESLINVSGCSAIEKTQRMLSGFCPHKVSAGQFSSLHVRSSKIEVAQFVKDLLFHLRTLFREGQFN | –
16 | – | – | – | 5 | 0.0061 | 1.19e+06 | 264 | C10 (ligand, also called IL-13 variant C10 (L10H, R11L, V18I, R86M, K89R, R108K)) cytokine: PGPVPPSTAHLELIEELINITQNQKAPLCNGSMVWSINLTAGMYCAALESLINVSGCSAIEKTQRMLSGFCPHKVSAGQFSSLHVMDTRIEVAQFVKDLLLHLKKLFKEGQFN | –
17 | – | – | – | 0.053 | 0.000404 | 7.61e+06 | 15000 | C12 (ligand, also called IL-13 variant C12 (L10H, R86M, T88S, K89R, L101N, K104R, K105A, R108K)) cytokine: PGPVPPSTAHRELIEELVNITQNQKAPLCNGSMVWSINLTAGMYCAALESLINVSGCSAIEKTQRMLSGFCPHKVSAGQFSSLHVMDSRIEVAQFVKDLLNHLRALFKEGQFN | –
18 | – | – | – | 0.393 | 0.000764 | 1.94e+06 | 36000 | IL-13 variant C4 (L10V, K89R, L101N, K105E, R108T) (ligand, the first is used here; also called polypeptide C4) PGPVPPSTAVRELIEELVNITQNQKAPLCNGSMVWSINLTAGMYCAALESLINVSGCSAIEKTQRMLSGFCPHKVSAGQFSSLHVRDTRIEVAQFVKDLLNHLKELFTEGQFNHHHHHH | –
19 | – | – | – | 0.003 | 5.37e-05 | 1.77e+07 | 4100 | IL-13 variant D7 (IL-13Rα2-selective IL-13 superkine; L10A, V18F, R86K, D87K, K89R, L101I, K104R, R108K) (ligand, the first is used here; also called polypeptide D7) PGPVPPSTAARELIEELFNITQNQKAPLCNGSMVWSINLTAGMYCAALESLINVSGCSAIEKTKRMLSGFCPHKVSAGQFPSLHVKKTRIEVAQFVKDLLIHLRKLFKEGQFNHHHHHH | –
20 | – | – | – | 0.0001 | 9.18e-07 | 6.41e+06 | 1600 | IL-13 variant C11 (IL-13Rα2-selective IL-13 superkine; L10H, R86T, D87G, T88R, R108K) (ligand, the first is used here; Made in insect Hi5 cells; also called polypeptide C11) PGPVPPSTAHRELIEELVNITQNQKAPLCNGSMVWSINLTAGMYCAALESLINVSGCSAIEKTQRMLSGFCPHKVSAGQFSSLHVTGRKIEVAQFVKDLLLHLKKLFKEGQFNHHHHHH | –
